Measured values published in article PMC8726686.

Assays:
[1] = target: Fc gamma receptor Type IIIa, FcγRIIIa (F176) (human) (UniProt P08637); assay: BLI
[2] = target: JS016-WT (wild-type control antibody); assay: BLI

UniProt P08637, sequence (P08637 17-254): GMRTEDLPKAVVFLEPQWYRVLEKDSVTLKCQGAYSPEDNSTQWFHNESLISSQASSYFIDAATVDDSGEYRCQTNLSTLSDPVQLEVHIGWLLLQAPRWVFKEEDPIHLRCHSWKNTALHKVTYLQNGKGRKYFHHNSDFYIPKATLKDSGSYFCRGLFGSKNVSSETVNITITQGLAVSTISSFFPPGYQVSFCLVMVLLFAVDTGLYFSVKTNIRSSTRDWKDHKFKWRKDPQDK

JS016-WT (wild-type control antibody) showed a Kd [1] of 2 µM.
With “C1q (first subcomponent of the C1 complex)” the Kd [2] was 0.00212 µM.
